Like-named read-outs stand apart in the source and are kept apart here.
T1: hpIgR_D2-D3
T1 construct: HIS-tagged construct from HEK293 cells; also called human pIgR extracellular domain 2-domain 3 (D2-D3); hD2-D3
T1 HIS-tagged domain construct: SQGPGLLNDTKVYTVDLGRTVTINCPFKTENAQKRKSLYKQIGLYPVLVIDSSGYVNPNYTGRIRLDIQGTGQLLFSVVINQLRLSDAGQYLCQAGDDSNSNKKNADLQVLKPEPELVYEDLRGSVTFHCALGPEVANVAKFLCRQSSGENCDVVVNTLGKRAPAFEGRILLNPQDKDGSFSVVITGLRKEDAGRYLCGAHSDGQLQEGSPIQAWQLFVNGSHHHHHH

T2: human pIgR extracellular domain 4-domain 5 (D4-D5) (human, UniProt P01833 350-565)
T2 construct: HIS-tagged construct made in HEK293 cells; also called hpIgR domains 4-5
T2 chain: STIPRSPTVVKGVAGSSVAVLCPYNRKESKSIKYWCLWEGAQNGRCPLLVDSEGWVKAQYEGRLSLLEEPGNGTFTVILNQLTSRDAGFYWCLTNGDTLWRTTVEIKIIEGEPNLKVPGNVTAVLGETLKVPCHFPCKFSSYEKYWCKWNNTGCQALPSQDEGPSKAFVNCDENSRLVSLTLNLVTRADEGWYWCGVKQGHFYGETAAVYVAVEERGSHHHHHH

T3: hpIgR_D3
T3 construct: HIS-tagged construct from HEK293 cells; also called human pIgR extracellular domain 3 (D3); hD3
T3 HIS-tagged domain construct: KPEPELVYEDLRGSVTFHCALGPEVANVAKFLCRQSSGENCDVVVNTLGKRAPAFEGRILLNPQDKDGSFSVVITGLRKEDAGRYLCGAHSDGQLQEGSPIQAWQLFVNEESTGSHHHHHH


Key:
[1] = biological target: T4, human pIgR, full-length, on cells (human, UniProt P01833 19-764); assay: flow cytometry on MDCK-hpIgR cells; summary table, repeats Table 1
T4 construct: whole, on cells; Used for the flow cytometry EC50 values (MDCK-hpIgR) and for the transcytosis read-outs; also called hpIgR; cell-surface hpIgR
Protocol: Flow Cytometry was performed as follows. To test whether VHH-mono-Fc molecules recognize cell-surface hpIgR, Madin-Darby canine kidney (MDCK) cells engineered to express full-length hpIgR were used. Cells were cultured in Dulbecco's modified Eagle's medium containing 10% fetal calf serum at 37° C. with 5% CO₂. Cells were split into equal fractions (≈70,000 cells) and incubated with increasing concentrations of VHH-mono-Fc molecules for 30 min at 4 C. […] Cells were washed twice with cold staining buffer, resuspended in running buffer and analyzed with an iQue Screener (IntelliCyt Corporation). Binding was assessed by RL1 (A647) Geomeans from the live cell population and EC50 was calculated by fitting log VHH concentration versus MFI in Prism (Graphpad).

[2] = biological target: T5, human pIgR extracellular domain (ECD) (human, UniProt P01833 19-638); assay: ECL (MSD), anti-VHH detection against anti-Fc detection
T5 construct: also called hpIgR ECD
Protocol: (§1) To check whether VHH recognizes a buried epitope on pIgR, EC₅₀ values were measured for VHH-mono-Fc molecules binding to hpIgR-ECD protein by electrochemiluminescence using two different detection antibodies, an anti-Fc antibody and an anti-VHH antibody. pIgR ECD (10 μg/ml in PBS) was coated on high-bind MSD plates for 2 hours at RT with 1000 rpm, incubated with blocking buffer for 1 hour at RT, incubated with VHH-mono-Fc molecules (increasing concentrations in PBS) for 2 hours at RT with 1000 rpm, washed 3× with PBT, incubated with ruthenylated secondary antibody (2 μg/ml in PBS) for 1 hour at RT with 1000 rpm, washed 3× with PBT and read plates in 40 ul reading buffer using the MSD imager. EC50 was calculated by fitting log VHH concentration versus log ECLU in Prism (Graphpad). The increase in EC₅₀ (>50-fold) due to anti-VHH detection was used as a measure to determine whether VHH recognized buried epitope on pIgR.

[3] = biological target: T6, human pIgR extracellular domain 1-domain 2 (D1-D2) (human, UniProt P01833 19-240); assay: BLI (Octet RED384), 1:1 fit, 25 C, PBS
T6 construct: HIS-tagged construct made in HEK293 cells
Protocol: (§2) Bio-layer Interferometry was performed as follows. […] Data were collected with Octet Data Acquisition version 7.1.0.87 (ForteBio) and analyzed using Octet Data Analysis version 7.1 (ForteBio). To measure binding kinetics between VHH-mono-Fc molecules and HIS-tagged pIgR proteins, VHH-mono-Fc was immobilized on amine-reactive generation-2 (ARG2) biosensors according to manufacturer's instructions and increasing concentrations of pIgR proteins were exposed to sensor-immobilized VHH. In some cases, HIS-tagged pIgR proteins were immobilized on anti-HIS biosensors and exposed to increasing concentrations of VHH-mono-Fc molecules. Association and dissociation rates were measured by the shift in wavelength (nm). […] All reactions were performed at 25° C. in PBS.

hpIgR_D2-D3 [4] = biological target: T1, hpIgR_D2-D3; assay: BLI (Octet RED384), 1:1 fit, 25 C, PBS
Protocol: as §2

[5] = biological target: T7, human pIgR extracellular domain 2 (D2) (human, UniProt P01833 128-242); assay: BLI (Octet RED384), 1:1 fit, 25 C, PBS
T7 construct: HIS-tagged construct made in HEK293 cells; also called hpIgR domain 2
Protocol: as §2

[6] = biological target: T5, human pIgR extracellular domain (ECD); assay: BLI (Octet RED384), 1:1 fit, 25 C, PBS
Protocol: as §2

[7] = biological target: T6, human pIgR extracellular domain …; assay: BLI (Octet RED384), 1:1 fit, 25 C, PBS; column kdis
hpIgR_D2-D3 [8] = biological target: T1, hpIgR_D2-D3; assay: as above
[9] = biological target: T7, human pIgR extracellular domain 2 (D2); assay: as above
[10] = biological target: T5, human pIgR extracellular domain (ECD); assay: as above
[11] = biological target: T2, human pIgR extracellular domain …; assay: ECL (MSD) heat map, HIS-tagged construct captured via anti-HIS, anti-human-Fc detection
Protocol: (§3) The Electrochemiluminescence assay was performed as follows. A meso-scale discovery (MSD) platform was used for conducting epitope mapping and epitope burial studies. To test the binding of VHH-mono-Fc molecules to purified pIgR protein constructs, Streptavidin MSD plates were coated with a biotinylated anti-HIS antibody (2 μg/ml in PBS) for 1 hour at RT with 1000 rpm, washed 3× with PBT (PBS+0.1% Tween-20), incubated with blocking buffer for 1 hour at RT, incubated with His-tagged pIgR proteins (10 μg/ml in PBS) for 2 hours at RT with 1000 rpm, washed 3× with PBT, incubated with VHH-mono-Fc molecules (100 μg/ml in PBS) for 2 hours at RT with 1000 rpm, washed 3× with PBT, incubated with ruthenylated-anti-human-Fc antibody (2 μg/ml in PBS) for 1 hour at RT with 1000 rpm, washed 3× with PBT and read plates in 40 ul reading buffer using the MSD imager. ECLU values were plotted as a heatmap.

[12] = biological target: T5, human pIgR extracellular domain (ECD); assay: ECL (MSD), hpIgR-ECD coated, anti-Fc detection
[13] = biological target: T5, human pIgR extracellular domain (ECD); assay: BLI (Octet), VHH-mono-Fc and hpIgR ectodomain
[14] = biological target: T4, human pIgR, full-length, on cells; assay: cell-based or functional assay
[15] = biological target: T5, human pIgR extracellular domain (ECD); assay: BLI; summary table, repeats Table 1
[16] = biological target: T4, human pIgR, full-length, on cells; assay: flow cytometry on MDCK-hpIgR cells
[17] = biological target: T4, human pIgR, full-length, on cells; assay: cell-based or functional assay; remark: listed apart in the source
hpIgR_D3 = biological target: T3, hpIgR_D3; assay: ECL (MSD) heat map, HIS-tagged construct captured via anti-HIS, anti-human-Fc detection;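 also: VHH-mono-Fc molecules tested at 100 µg/ml for 2 h on captured His-tagged pIgR constructs (10 µg/ml), read-out as electrochemiluminescence units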
[18] = biological target: T8, human pIgR extracellular domain 5 (D5) (human, UniProt P01833 460-565); assay: as above
T8 construct: HIS-tagged construct made in HEK293 cells; also called hpIgR domain 5

[19] = biological target: T9, human pIgR extracellular domain 1 (D1) (human, UniProt P01833 19-127); assay: as above
T9 construct: HIS-tagged construct made in HEK293 cells; also called hpIgR domain-1

[20] = biological target: T5, human pIgR extracellular domain (ECD); assay: BLI; summary table, repeats Table 1; remark: listed apart in the source
[21] = biological target: T4, human pIgR, full-length, on cells; assay: cell-based or functional assay; remark: listed apart in the source
[22] = biological target: T5, human pIgR extracellular domain (ECD); assay: ECL (MSD), hpIgR-ECD coated, anti-VHH detection
Protocol: as §1

[23] = biological target: T4, human pIgR, full-length, on cells; assay: flow cytometry on MDCK-hpIgR cells; summary table, repeats Table 1; remark: listed apart in the source
[24] = biological target: T2, human pIgR extracellular domain …; assay: BLI (Octet RED384), 1:1 fit, 25 C, PBS; column kdis
[25] = biological target: T5, human pIgR extracellular domain (ECD); assay: as above; remark: listed apart in the source
hpIgR_D2-D3 [26] = biological target: T1, hpIgR_D2-D3; assay: ECL (MSD) heat map, HIS-tagged construct captured via anti-HIS, anti-human-Fc detection
Protocol: as §3

[27] = biological target: T8, human pIgR extracellular domain 5 (D5); assay: as above; remark: listed apart in the source
Protocol: as §3

[28] = biological target: T7, human pIgR extracellular domain 2 (D2); assay: as above
[29] = biological target: T2, human pIgR extracellular domain …; assay: BLI (Octet RED384), 1:1 fit, 25 C, PBS
[30] = biological target: T5, human pIgR extracellular domain (ECD); assay: BLI (Octet RED384), 1:1 fit, 25 C, PBS; remark: listed apart in the source

T5 sequence (P01833 other isoform, or with tags, fused parts or gaps): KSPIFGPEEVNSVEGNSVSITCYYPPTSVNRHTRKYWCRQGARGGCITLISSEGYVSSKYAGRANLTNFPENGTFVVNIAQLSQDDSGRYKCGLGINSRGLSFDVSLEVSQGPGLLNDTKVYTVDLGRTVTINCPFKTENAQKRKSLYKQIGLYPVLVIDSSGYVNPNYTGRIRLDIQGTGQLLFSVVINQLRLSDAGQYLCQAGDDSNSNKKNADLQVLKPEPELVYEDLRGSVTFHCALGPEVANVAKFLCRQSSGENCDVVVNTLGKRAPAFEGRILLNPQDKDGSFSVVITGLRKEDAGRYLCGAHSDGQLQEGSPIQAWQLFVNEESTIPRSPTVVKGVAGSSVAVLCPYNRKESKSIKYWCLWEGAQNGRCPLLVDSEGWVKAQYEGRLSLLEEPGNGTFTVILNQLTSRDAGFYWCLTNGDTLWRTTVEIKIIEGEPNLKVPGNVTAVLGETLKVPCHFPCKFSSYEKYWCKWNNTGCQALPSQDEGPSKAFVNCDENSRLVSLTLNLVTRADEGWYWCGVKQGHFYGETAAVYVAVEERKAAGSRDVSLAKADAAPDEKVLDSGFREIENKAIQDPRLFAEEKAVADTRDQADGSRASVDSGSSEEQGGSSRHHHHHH
T4 sequence (P01833 19-764): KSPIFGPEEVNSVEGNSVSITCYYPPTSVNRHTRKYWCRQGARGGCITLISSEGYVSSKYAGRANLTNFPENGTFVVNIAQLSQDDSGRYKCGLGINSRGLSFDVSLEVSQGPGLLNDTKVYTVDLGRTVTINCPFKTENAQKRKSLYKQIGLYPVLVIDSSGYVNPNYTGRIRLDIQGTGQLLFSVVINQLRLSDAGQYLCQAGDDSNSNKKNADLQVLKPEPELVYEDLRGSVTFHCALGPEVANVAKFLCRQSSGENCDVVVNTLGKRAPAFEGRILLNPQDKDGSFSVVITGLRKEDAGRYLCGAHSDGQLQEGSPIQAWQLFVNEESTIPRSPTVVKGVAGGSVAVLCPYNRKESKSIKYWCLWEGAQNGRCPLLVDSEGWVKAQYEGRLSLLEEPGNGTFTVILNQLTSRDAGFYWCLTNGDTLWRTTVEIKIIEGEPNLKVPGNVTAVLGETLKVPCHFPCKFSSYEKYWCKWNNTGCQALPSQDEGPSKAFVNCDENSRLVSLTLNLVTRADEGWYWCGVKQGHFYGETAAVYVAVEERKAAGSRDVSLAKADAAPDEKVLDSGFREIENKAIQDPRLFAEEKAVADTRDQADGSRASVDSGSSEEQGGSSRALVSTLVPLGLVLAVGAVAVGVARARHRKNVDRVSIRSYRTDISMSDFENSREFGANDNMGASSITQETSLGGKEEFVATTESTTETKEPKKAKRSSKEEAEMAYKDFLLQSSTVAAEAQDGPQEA
T6 sequence (P01833 other isoform, or with tags, fused parts or gaps limits assumed): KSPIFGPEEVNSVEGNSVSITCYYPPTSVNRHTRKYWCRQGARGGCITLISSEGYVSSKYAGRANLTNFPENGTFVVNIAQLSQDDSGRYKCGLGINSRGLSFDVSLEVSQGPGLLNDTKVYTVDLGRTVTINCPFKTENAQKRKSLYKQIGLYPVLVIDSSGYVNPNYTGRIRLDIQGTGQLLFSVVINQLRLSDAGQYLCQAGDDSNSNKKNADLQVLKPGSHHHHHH
T9 sequence (P01833 other isoform, or with tags, fused parts or gaps limits assumed): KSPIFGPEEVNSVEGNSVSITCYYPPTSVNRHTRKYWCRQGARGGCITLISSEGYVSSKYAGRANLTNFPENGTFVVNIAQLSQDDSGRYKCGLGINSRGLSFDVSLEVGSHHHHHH

Row | Binder | EC50 [1] [nM] | Fold change in EC50 [2] [fold] | EC50 [12] [nM] | Kd [13] [nM] | For. Trans. (Fold Incr.) [14] [fold] | Rev. Trans (Fold Incr.) [14] [fold] | Kd [15] [nM] | EC50 [16] [nM] | binding result (hpIgR_D3) | Kd [20] [nM] | Transcytosis (Fold Incr.) [21] [fold] | EC50 [22] [nM] | EC50 [23] [nM] | further results
1 | VHH6-linker-mono-Fc protein (Fc fusion, made in CHO cells; also called VHH6-mono-Fc; hpIgR_181) EVQLVESGGGLVQAGGSLRLSCAVSGSSVSSDAMGWYRQAPGNQRAWVAFISGGGTTTYADSVKGRFTISRDNTKNTVYLHMNSLKPEDTAVYYCNHPLTSRWGQGTQVTVSSEPKTPKPQPQPQLQPQPNPTTESKSPKSPAPELLGGPSVFLFPPKPKDTLMISRTPEVTCVVVDVSHEDPEVKFNWYVDGVEVHNAKTKPREEQYNSTYRVVSVLTVLHQDWLNGKEYKCKVSNKALPAPIEKTISKAKGQPREPQVYTKPPSREEMTKNQVSLSCLVKGFYPSDIAVEWESNGQPENNYKTTVPVLDSDGSFRLASYLTVDKSRWQQGNVFSCSVMHEALHNHYTQKSLSLSPGK | 11.5 | 1060 | 3.9 | 27 | 25.6 | 14.6 | 27 | 11.5 | no binding (tested: 100 ug/ml (single concentration)) | 27 | 30.7 | 4190 | 11.5 | Kd [3]: 63.2 nM; kon [3]: 40000 M⁻¹ s⁻¹; Kd (hpIgR_D2-D3 [4]): 71.5 nM; kon (hpIgR_D2-D3 [4]): 34800 M⁻¹ s⁻¹; Kd [5]: 68.1 nM; kon [5]: 39500 M⁻¹ s⁻¹; Kd [6]: 48.9 nM; kon [6]: 44700 M⁻¹ s⁻¹; koff [7]: 0.00253 s⁻¹; koff (hpIgR_D2-D3 [8]): 0.00249 s⁻¹; koff [9]: 0.00269 s⁻¹; koff [10]: 0.00219 s⁻¹; binding result [11]: no binding (tested: 100 ug/ml (single concentration)); increase in their apical concentration relative to control VHH (MDCK-hpIgR monolayers) [17]: > 10 fold; binding result [18]: no binding (tested: 100 ug/ml (single concentration)); binding result [19]: no binding (tested: 100 ug/ml (single concentration))
2 | VHH10-linker-mono-Fc protein (Fc fusion, made in CHO cells; also called VHH10-mono-Fc; hpIgR_225) EVQVVESGGGLVQAGGSLRLSCAASGFTFTRYAMGWFRQAPGKERSFVAAISWSGSSAGYGDSVKGRFTISRDNAKNTLYLQMNSLKPEDTAVYYCAADPFNQGYWGQGTQVTVSSEPKTPKPQPQPQLQPQPNPTTESKSPKSPAPELLGGPSVFLFPPKPKDTLMISRTPEVTCVVVDVSHEDPEVKFNWYVDGVEVHNAKTKPREEQYNSTYRVVSVLTVLHQDWLNGKEYKCKVSNKALPAPIEKTISKAKGQPREPQVYTKPPSREEMTKNQVSLSCLVKGFYPSDIAVEWESNGQPENNYKTTVPVLDSDGSFRLASYLTVDKSRWQQGNVFSCSVMHEALHNHYTQKSLSLSPGK | 20.4 | 2.5 | 17.6 | 256 | 1.3 | 3.4 | 256 | 20.4 | no binding (tested: 100 ug/ml (single concentration)) | 256 | 5 | 43.9 | 20.4 | koff [24]: 0.00188 s⁻¹; koff [25]: 0.00513 s⁻¹; binding result (hpIgR_D2-D3 [26]): no binding (tested: 100 ug/ml (single concentration)); binding result [27]: no binding (tested: 100 ug/ml (single concentration)); binding result [28]: no binding (tested: 100 ug/ml (single concentration)); Kd [29]: 115 nM; kon [29]: 16300 M⁻¹ s⁻¹; Kd [30]: 256 nM; kon [30]: 20000 M⁻¹ s⁻¹

From patent US20220324970A1 (Janssen / Centocor, published 2022)
